Measured values as given in the supplement of paper PMC9112550, “Optimization of the antimicrobial peptide Bac7 by deep mutational scanning” (BMC Biology, 2022).

Tested on: Escherichia coli TOP10
Experiment: shrunken log2 fold change of peptide-encoding DNA abundance (4.5 h post-induction vs induction); higher = less antimicrobial activity (less host growth inhibition)
Settings: time post-induction: 4.5 h; library: site-saturation at positions 5, 18, 19, 20
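Note: peptides expressed intracellularly from a pBAD plasmid library in pooled LB shake-flask culture, induced with 0.3% L-arabinose, DNA abundance read by NGS, three biological replicates, DESeq2 with apeglm shrinkage.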

Sequence	shrunken log2 fold change
RRIRYRPPRLPRPRPRPLQEPRP	-0.218
RRIRKRPPRLPRPRPRPRVPPRP	0.0172
RRIRKRPPRLPRPRPRPWRPPRP	0.177
RRIRGRPPRLPRPRPRPHLFPRP	0.0842
RRIRNRPPRLPRPRPRPIHEPRP	-0.00804
RRIRKRPPRLPRPRPRPWITPRP	-0.105
RRIRQRPPRLPRPRPRPDSWPRP	0.0403
RRIRDRPPRLPRPRPRPSAIPRP	0.0484
RRIRWRPPRLPRPRPRPDKSPRP	-0.135
RRIRYRPPRLPRPRPRPGVAPRP	0.182
RRIRCRPPRLPRPRPRPKGEPRP	0.0643
RRIRQRPPRLPRPRPRPPECPRP	-0.0742
RRIRGRPPRLPRPRPRPDDQPRP	1.92
RRIRSRPPRLPRPRPRPGQFPRP	-0.112
RRIRVRPPRLPRPRPRPDERPRP	0.139
RRIRQRPPRLPRPRPRPQDEPRP	0.104
RRIRVRPPRLPRPRPRPDAWPRP	0.0757
RRIRQRPPRLPRPRPRPKRCPRP	0.129
RRIRWRPPRLPRPRPRPYVPPRP	-0.837
RRIRDRPPRLPRPRPRPEAFPRP	0.119
RRIRYRPPRLPRPRPRPMKYPRP	-0.00968
RRIRIRPPRLPRPRPRPCRMPRP	-0.186
RRIRPRPPRLPRPRPRPWPPPRP	0.504
RRIRTRPPRLPRPRPRPAVLPRP	0.153
RRIRARPPRLPRPRPRPAIFPRP	0.562

Sequence	shrunken log2 fold change
RRIRMRPPRLPRPRPRPRDFPRP	0.83
RRIRFRPPRLPRPRPRPSRMPRP	0.311
RRIRRRPPRLPRPRPRPLYAPRP	0.0633
RRIRPRPPRLPRPRPRPNVTPRP	0.209
RRIRIRPPRLPRPRPRPMKLPRP	-0.519
RRIRNRPPRLPRPRPRPRNFPRP	-0.132
RRIRHRPPRLPRPRPRPQDRPRP	-0.111
RRIRCRPPRLPRPRPRPWEEPRP	0.0492
RRIRRRPPRLPRPRPRPSMKPRP	-0.434
RRIRWRPPRLPRPRPRPQRSPRP	0.172
RRIRMRPPRLPRPRPRPYAVPRP	-0.0789
RRIRFRPPRLPRPRPRPFGRPRP	-0.199
RRIRFRPPRLPRPRPRPINSPRP	-0.428
RRIRSRPPRLPRPRPRPTVGPRP	0.187
RRIRMRPPRLPRPRPRPSMQPRP	0.345
RRIRQRPPRLPRPRPRPTYQPRP	-0.109
RRIRLRPPRLPRPRPRPCMAPRP	-0.311
RRIRDRPPRLPRPRPRPRMMPRP	0.312
RRIRRRPPRLPRPRPRPIMPPRP	-0.188
RRIRWRPPRLPRPRPRPNFSPRP	-0.305
RRIRVRPPRLPRPRPRPISEPRP	-0.282
RRIRPRPPRLPRPRPRPPSAPRP	1.05
RRIRIRPPRLPRPRPRPVIRPRP	0.00816
RRIRGRPPRLPRPRPRPVKPPRP	0.268
RRIRHRPPRLPRPRPRPYYPPRP	-0.228

Sequence	shrunken log2 fold change
RRIRRRPPRLPRPRPRPSCIPRP	-0.596
RRIRDRPPRLPRPRPRPPMCPRP	-0.0883
RRIRIRPPRLPRPRPRPQCYPRP	-0.0646
RRIRNRPPRLPRPRPRPALFPRP	0.177
RRIRCRPPRLPRPRPRPWLGPRP	0.188
RRIRSRPPRLPRPRPRPVDWPRP	0.306
RRIRPRPPRLPRPRPRPFVGPRP	-0.297
RRIRDRPPRLPRPRPRPHRLPRP	0.033
RRIRFRPPRLPRPRPRPKICPRP	-0.0416
RRIRPRPPRLPRPRPRPFNVPRP	-0.0975
RRIRPRPPRLPRPRPRPHMRPRP	0.0614
RRIRKRPPRLPRPRPRPDYVPRP	-0.0105
RRIRWRPPRLPRPRPRPTKNPRP	0.159
RRIRWRPPRLPRPRPRPKFQPRP	-0.00693
RRIRNRPPRLPRPRPRPGDMPRP	-0.21
RRIRHRPPRLPRPRPRPVETPRP	0.0401
RRIRDRPPRLPRPRPRPNPWPRP	0.111
RRIRPRPPRLPRPRPRPDHLPRP	-0.172
RRIRLRPPRLPRPRPRPVDFPRP	0.0727
RRIRHRPPRLPRPRPRPYHKPRP	-0.412
RRIRNRPPRLPRPRPRPPARPRP	0.746
RRIRQRPPRLPRPRPRPCVEPRP	-0.206
RRIRIRPPRLPRPRPRPTEIPRP	-0.305
RRIRGRPPRLPRPRPRPVSLPRP	0.321
RRIRWRPPRLPRPRPRPYMPPRP	-0.695

Sequence	shrunken log2 fold change
RRIRERPPRLPRPRPRPYKCPRP	-0.122
RRIRQRPPRLPRPRPRPQTNPRP	-0.736
RRIRTRPPRLPRPRPRPLLMPRP	-0.278
RRIRWRPPRLPRPRPRPHYVPRP	-0.113
RRIRSRPPRLPRPRPRPLCEPRP	0.0616
RRIRDRPPRLPRPRPRPINTPRP	-0.115
RRIRRRPPRLPRPRPRPKVSPRP	0.267
RRIRKRPPRLPRPRPRPPTEPRP	0.395
RRIRTRPPRLPRPRPRPGSVPRP	-0.179
RRIRQRPPRLPRPRPRPCLHPRP	-0.0247
RRIRDRPPRLPRPRPRPMTNPRP	-0.184
RRIRLRPPRLPRPRPRPMAWPRP	-0.0215
RRIRYRPPRLPRPRPRPGQYPRP	-0.414
RRIRRRPPRLPRPRPRPMHEPRP	0.213
RRIRKRPPRLPRPRPRPAQHPRP	0.65
RRIRLRPPRLPRPRPRPFVFPRP	-0.337
RRIRMRPPRLPRPRPRPTWCPRP	-0.0681
RRIRERPPRLPRPRPRPMNKPRP	-0.765
RRIRQRPPRLPRPRPRPGQQPRP	-0.0212
RRIRLRPPRLPRPRPRPLWAPRP	0.129
RRIRDRPPRLPRPRPRPCMSPRP	-0.256
RRIRHRPPRLPRPRPRPPCPPRP	-0.0235
RRIRYRPPRLPRPRPRPKERPRP	-0.002
RRIRWRPPRLPRPRPRPDRHPRP	-0.157
RRIRWRPPRLPRPRPRPKYVPRP	-0.0314

Sequence	shrunken log2 fold change
RRIRMRPPRLPRPRPRPSQQPRP	0.463
RRIRMRPPRLPRPRPRPMMLPRP	-0.15
RRIRKRPPRLPRPRPRPFLAPRP	0.169
RRIRFRPPRLPRPRPRPQKDPRP	-0.376
RRIRGRPPRLPRPRPRPQTSPRP	0.407
RRIRMRPPRLPRPRPRPIKEPRP	-0.00194
RRIRMRPPRLPRPRPRPPEWPRP	0.5
RRIRFRPPRLPRPRPRPISLPRP	-0.452
RRIRFRPPRLPRPRPRPVMNPRP	-0.548
RRIRNRPPRLPRPRPRPAPTPRP	0.809
RRIRQRPPRLPRPRPRPPCCPRP	0.0763
RRIRWRPPRLPRPRPRPNDPPRP	-0.137
RRIRLRPPRLPRPRPRPKRLPRP	-0.0581
RRIRQRPPRLPRPRPRPKFIPRP	-0.0852
RRIRERPPRLPRPRPRPCFTPRP	-0.453
RRIRTRPPRLPRPRPRPSFNPRP	-0.507
RRIRRRPPRLPRPRPRPRWRPRP	0.832
RRIRKRPPRLPRPRPRPLFPPRP	0.161
RRIRRRPPRLPRPRPRPYIQPRP	-0.603
RRIRERPPRLPRPRPRPFYGPRP	0.015
RRIRTRPPRLPRPRPRPEKKPRP	0.0368
RRIRIRPPRLPRPRPRPYCQPRP	-1.1
RRIRRRPPRLPRPRPRPSYFPRP	-0.395
RRIRGRPPRLPRPRPRPYKYPRP	-0.346
RRIRHRPPRLPRPRPRPTHMPRP	-0.065

Sequence	shrunken log2 fold change
RRIRFRPPRLPRPRPRPELGPRP	0.144
RRIRWRPPRLPRPRPRPSKPPRP	-0.0185
RRIRGRPPRLPRPRPRPASEPRP	1.13
RRIRSRPPRLPRPRPRPQYYPRP	-0.29
RRIRRRPPRLPRPRPRPGFEPRP	0.293
RRIRVRPPRLPRPRPRPMRKPRP	4.33
RRIRPRPPRLPRPRPRPAKFPRP	0.0407
RRIRERPPRLPRPRPRPDPCPRP	-0.119
RRIRVRPPRLPRPRPRPSHEPRP	-0.225
RRIRYRPPRLPRPRPRPPHKPRP	-0.549
RRIRPRPPRLPRPRPRPERYPRP	0.378
RRIRCRPPRLPRPRPRPNKHPRP	-0.541
RRIRWRPPRLPRPRPRPMANPRP	0.21
RRIRNRPPRLPRPRPRPWLDPRP	-0.029
RRIRVRPPRLPRPRPRPKRKPRP	0.376
RRIRDRPPRLPRPRPRPCYSPRP	-0.0729
RRIRKRPPRLPRPRPRPWGQPRP	0.0379
RRIRFRPPRLPRPRPRPQNWPRP	-0.148
RRIRNRPPRLPRPRPRPNWCPRP	0.23
RRIRFRPPRLPRPRPRPCNNPRP	-0.82
RRIRGRPPRLPRPRPRPCPPPRP	0.284
RRIRIRPPRLPRPRPRPKTCPRP	0.179
RRIRKRPPRLPRPRPRPDFDPRP	-0.183
RRIRLRPPRLPRPRPRPACGPRP	0.412
RRIRCRPPRLPRPRPRPCWGPRP	-0.195
